We go through two proteins from publication PMC3183031, “An α/β Hydrolase and Associated Per-ARNT-Sim Domain Comprise a Bipartite Sensing Module Coupled with Diverse Output Domains” (PLoS ONE, 2011).

This data set concerns the molecule itself. The data set is described as follows: SEC; Superose 12 10/300 GL, 4°C, 20 mM Tris-HCl pH 6.9, 100 mM NaCl, 0.1 mM EDTA; protein applied at 2.5 mg/ml; calibrated with standard proteins. On the technique in general: Size exclusion chromatography separates by hydrodynamic size, large species first.

B1: His-tagged wild type RsbP (natural protein, Bacillus subtilis, UniProt O07014 1-403, looked up)
chain: MDKQLNDAPCGFLALSEEGSIIAANRTLIKILDYEPEQVIGQHMNMMLTIPAQLFCQLYFFPLLKLEHHIEEIYISLKARDGEEIPVLINAIARHDSGASVFDCVLIPMRKRNEYENELLIARNEAQEALLAKQKANAELEIALETLKAKQEELLEINKQNQQFKLNTKRELELARKIQKNSLTEPIVNDQVQIDSYYNASSELSGDLYGYYQIDEHRYGIIILDVMGHGISSALITMSLHPLFQRQITQGLSPVKVMKELDRHLHSLFQNDEEARHYCTAIYLEIDIARQRIDYVNAGHPPALWQDDSGTQHLLHATSPPIGMFEDLEFQSSSLSYTEDGRLLLYTDGVMDPTASCYLFDLLKDHPDSPIADLKEKILTSLQHQKEAHHKSDDECFILVDVK
notes: RsbP serine phosphatase, Bacillus subtilis; called full-length in the results and discussion; predicted monomer mass of the His-tagged protein 48,325; also called WT
Consider B1, for which the stoichiometry N (usually a count of units in the complex or per binding partner) worked out at 4.

B2: His-tagged RsbP-F55A (natural protein, Bacillus subtilis, UniProt O07014 1-403, looked up)
chain: MDKQLNDAPCGFLALSEEGSIIAANRTLIKILDYEPEQVIGQHMNMMLTIPAQLACQLYFFPLLKLEHHIEEIYISLKARDGEEIPVLINAIARHDSGASVFDCVLIPMRKRNEYENELLIARNEAQEALLAKQKANAELEIALETLKAKQEELLEINKQNQQFKLNTKRELELARKIQKNSLTEPIVNDQVQIDSYYNASSELSGDLYGYYQIDEHRYGIIILDVMGHGISSALITMSLHPLFQRQITQGLSPVKVMKELDRHLHSLFQNDEEARHYCTAIYLEIDIARQRIDYVNAGHPPALWQDDSGTQHLLHATSPPIGMFEDLEFQSSSLSYTEDGRLLLYTDGVMDPTASCYLFDLLKDHPDSPIADLKEKILTSLQHQKEAHHKSDDECFILVDVK
notes: RsbP serine phosphatase, Bacillus subtilis, with F55A
Regarding B2, the binding result is recorded as “binds”.
